In PMC9482650, “Quantitative fragmentomics allow affinity mapping of interactomes” (Nature Communications, 2022):

T1: APBA2_1, Q99767
T1 sequence (Q99767 563-664, limits assumed, looked up): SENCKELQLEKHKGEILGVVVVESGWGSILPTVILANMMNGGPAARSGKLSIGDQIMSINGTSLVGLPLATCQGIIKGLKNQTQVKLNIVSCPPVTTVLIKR

T2: ARHGEF11, O15085
T2 sequence (O15085 42-136, limits assumed, looked up): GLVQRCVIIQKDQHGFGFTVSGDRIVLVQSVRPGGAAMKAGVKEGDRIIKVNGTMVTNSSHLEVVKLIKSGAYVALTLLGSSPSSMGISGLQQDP

T3: GRIP1_2, Q9Y3R0
T3 sequence (Q9Y3R0 145-248, limits assumed, looked up): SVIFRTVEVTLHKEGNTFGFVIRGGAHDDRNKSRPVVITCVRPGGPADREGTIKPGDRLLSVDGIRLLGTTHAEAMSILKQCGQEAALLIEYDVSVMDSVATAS

T4: GRIP1_3, Q9Y3R0
T4 sequence (Q9Y3R0 247-346, limits assumed, looked up): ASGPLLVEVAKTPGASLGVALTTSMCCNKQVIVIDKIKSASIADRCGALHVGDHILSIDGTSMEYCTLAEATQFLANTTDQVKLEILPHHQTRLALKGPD

T5: LIN7C, Q9NUP9
T5 sequence (Q9NUP9 88-185, limits assumed, looked up): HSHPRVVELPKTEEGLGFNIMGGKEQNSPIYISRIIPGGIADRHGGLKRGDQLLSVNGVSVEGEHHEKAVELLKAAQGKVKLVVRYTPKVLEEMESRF

T6: NHERF3_1, Q5T2W1
T6 sequence (Q5T2W1 4-100, limits assumed, looked up): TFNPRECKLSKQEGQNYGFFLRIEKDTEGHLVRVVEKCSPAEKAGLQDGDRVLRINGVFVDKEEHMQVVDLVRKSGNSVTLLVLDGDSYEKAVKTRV

T7: NHERF3_3, Q5T2W1
T7 sequence (Q5T2W1 238-333, limits assumed, looked up): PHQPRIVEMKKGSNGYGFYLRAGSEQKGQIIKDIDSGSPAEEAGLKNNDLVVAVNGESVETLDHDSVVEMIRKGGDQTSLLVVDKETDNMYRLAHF

T8: RADIL, Q96JH8
T8 sequence (Q96JH8 971-1071, limits assumed, looked up): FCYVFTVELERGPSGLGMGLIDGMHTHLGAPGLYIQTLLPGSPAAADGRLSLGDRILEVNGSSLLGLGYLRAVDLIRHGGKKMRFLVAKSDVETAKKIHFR

T9: RHPN1, Q8TCX5
T9 sequence (Q8TCX5 508-602, limits assumed, looked up): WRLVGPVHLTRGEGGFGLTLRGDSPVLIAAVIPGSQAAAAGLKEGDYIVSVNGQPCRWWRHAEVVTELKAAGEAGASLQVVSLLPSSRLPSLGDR

T10: SNTG1, Q9NSN8
T10 sequence (Q9NSN8 52-150, limits assumed, looked up): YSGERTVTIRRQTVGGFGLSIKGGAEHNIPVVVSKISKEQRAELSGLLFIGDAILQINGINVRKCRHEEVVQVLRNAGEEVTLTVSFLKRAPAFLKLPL

T11: SYNJ2BP, P57105
T11 sequence (P57105 8-110, limits assumed, looked up): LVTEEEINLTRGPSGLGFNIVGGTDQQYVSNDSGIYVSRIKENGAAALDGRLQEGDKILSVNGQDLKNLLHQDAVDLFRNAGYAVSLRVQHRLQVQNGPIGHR

T12: TJP3_3, O95049
T12 sequence (O95049 375-456, limits assumed, looked up): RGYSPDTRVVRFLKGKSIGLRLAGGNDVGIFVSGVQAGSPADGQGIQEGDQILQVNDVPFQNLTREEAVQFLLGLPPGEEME


Legend:
Test in all cases: holdup assay
Design in all cases: key: below the threshold = too weak to quantify, mostly under pKd 3.1 to 4
Details in all cases: plain residues with an end cap or a label only (N-terminal biotin on a linker: ado-ado)
APBA2_1, Q99767 = target: T1, APBA2_1, Q99767
ARHGEF11, O15085 = target: T2, ARHGEF11, O15085
ARHGEF12, Q9NZN5-2 = target: ARHGEF12, Q9NZN5-2
CASK, O14936 = target: CASK, O14936
DLG2_2, Q15700 = target: DLG2_2, Q15700
DLG2_3, Q15700 = target: DLG2_3, Q15700
GRID2IP_1, A4D2P6 = target: GRID2IP_1, A4D2P6
GRIP1_2, Q9Y3R0 = target: T3, GRIP1_2, Q9Y3R0
GRIP1_3, Q9Y3R0 = target: T4, GRIP1_3, Q9Y3R0
GRIP2_6, Q9C0E4 = target: GRIP2_6, Q9C0E4
HTRA1, Q92743 = target: HTRA1, Q92743
IL16_4, Q14005 = target: IL16_4, Q14005
Inadl_10, Q8NI35 = target: Inadl_10, Q8NI35
Inadl_2, Q8NI35 = target: Inadl_2, Q8NI35
LIN7C, Q9NUP9 = target: T5, LIN7C, Q9NUP9
LNX1_2, Q8TBB1 = target: LNX1_2, Q8TBB1
MAGI1_1, Q96QZ7 = target: MAGI1_1, Q96QZ7
NHERF3_1, Q5T2W1 = target: T6, NHERF3_1, Q5T2W1
NHERF3_3, Q5T2W1 = target: T7, NHERF3_3, Q5T2W1
PDZRN4_1, Q6ZMN7 = target: PDZRN4_1, Q6ZMN7
RADIL, Q96JH8 = target: T8, RADIL, Q96JH8
RHPN1, Q8TCX5 = target: T9, RHPN1, Q8TCX5
SNTG1, Q9NSN8 = target: T10, SNTG1, Q9NSN8
SYNJ2BP, P57105 = target: T11, SYNJ2BP, P57105
TJP1_2, Q07157 = target: TJP1_2, Q07157
TJP3_3, O95049 = target: T12, TJP3_3, O95049

Chain of ARHGEF12, Q9NZN5-2 (Q9NZN5 other isoform, or with tags, fused parts or gaps): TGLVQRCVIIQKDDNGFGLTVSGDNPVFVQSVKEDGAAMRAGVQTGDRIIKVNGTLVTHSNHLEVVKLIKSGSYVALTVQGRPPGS
Chain of TJP1_2, Q07157 (Q07157 181-274): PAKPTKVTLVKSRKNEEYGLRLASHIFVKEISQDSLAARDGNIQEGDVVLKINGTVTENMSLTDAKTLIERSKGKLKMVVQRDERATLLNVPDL
Chain of GRID2IP_1, A4D2P6 (A4D2P6 1-87): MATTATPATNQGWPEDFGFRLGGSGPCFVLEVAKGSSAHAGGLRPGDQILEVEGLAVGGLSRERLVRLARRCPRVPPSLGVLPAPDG
Chain of IL16_4, Q14005 (Q14005 1229-1329): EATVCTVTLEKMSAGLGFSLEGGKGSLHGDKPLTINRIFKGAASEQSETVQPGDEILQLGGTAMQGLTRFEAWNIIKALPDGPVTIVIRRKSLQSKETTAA
Chain of PDZRN4_1, Q6ZMN7 (Q6ZMN7 213-318): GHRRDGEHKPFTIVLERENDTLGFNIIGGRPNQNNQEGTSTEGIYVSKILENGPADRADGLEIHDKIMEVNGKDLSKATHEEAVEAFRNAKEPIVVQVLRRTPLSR
Chain of Inadl_10, Q8NI35 (Q8NI35 1673-1763): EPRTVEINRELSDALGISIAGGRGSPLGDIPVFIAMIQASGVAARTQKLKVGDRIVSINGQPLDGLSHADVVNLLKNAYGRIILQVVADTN
Chain of LNX1_2, Q8TBB1 (Q8TBB1 371-470): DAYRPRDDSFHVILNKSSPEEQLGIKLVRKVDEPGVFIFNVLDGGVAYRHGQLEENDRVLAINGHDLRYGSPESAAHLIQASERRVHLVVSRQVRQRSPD
Chain of Inadl_2, Q8NI35 (Q8NI35 238-335): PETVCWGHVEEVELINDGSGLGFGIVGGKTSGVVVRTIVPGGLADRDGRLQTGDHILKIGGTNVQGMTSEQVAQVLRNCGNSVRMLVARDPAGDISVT
Chain of MAGI1_1, Q96QZ7 (Q96QZ7 1-106): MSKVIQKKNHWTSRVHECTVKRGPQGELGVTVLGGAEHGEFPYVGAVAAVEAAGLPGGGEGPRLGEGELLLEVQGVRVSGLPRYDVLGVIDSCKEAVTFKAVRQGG
Chain of GRIP2_6, Q9C0E4 (Q9C0E4 648-740): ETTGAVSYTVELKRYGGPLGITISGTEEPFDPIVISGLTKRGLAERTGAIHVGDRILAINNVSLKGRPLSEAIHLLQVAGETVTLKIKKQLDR
Chain of HTRA1, Q92743 (Q92743 360-477): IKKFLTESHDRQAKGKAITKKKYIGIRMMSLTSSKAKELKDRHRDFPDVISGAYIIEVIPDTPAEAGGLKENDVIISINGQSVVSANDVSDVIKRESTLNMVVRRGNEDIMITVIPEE
Chain of CASK, O14936 (O14936 487-570): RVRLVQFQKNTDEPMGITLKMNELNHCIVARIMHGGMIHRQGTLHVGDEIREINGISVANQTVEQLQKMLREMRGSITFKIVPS

| Binder | pKd (APBA2_1, Q99767) | pKd (ARHGEF11, O15085) | pKd (ARHGEF12, Q9NZN5-2) | pKd (CASK, O14936) | pKd (DLG2_2, Q15700) | pKd (DLG2_3, Q15700) | pKd (GRID2IP_1, A4D2P6) | pKd (GRIP1_2, Q9Y3R0) | pKd (GRIP1_3, Q9Y3R0) | pKd (GRIP2_6, Q9C0E4) | pKd (HTRA1, Q92743) | pKd (IL16_4, Q14005) | pKd (Inadl_10, Q8NI35) | pKd (Inadl_2, Q8NI35) | pKd (LIN7C, Q9NUP9) | pKd (LNX1_2, Q8TBB1) | pKd (MAGI1_1, Q96QZ7) | pKd (NHERF3_1, Q5T2W1) | pKd (NHERF3_3, Q5T2W1) | pKd (PDZRN4_1, Q6ZMN7) | other results |
| --- | --- | --- | --- | --- | --- | --- | --- | --- | --- | --- | --- | --- | --- | --- | --- | --- | --- | --- | --- | --- | --- |
| REKKFFCTIL [GNG4, P50150] | below the threshold | 5.34 | 5.87 | below the threshold | 3.97 | 4.41 | below the threshold | 4.1 | below the threshold | 4.57 | 5.48 | 3.49 | 4.26 | below the threshold | below the threshold | below the threshold | below the threshold | 5.43 | 3.5 | 4.19 | pKd (RADIL, Q96JH8): 5.25; pKd (RHPN1, Q8TCX5): 4.48; pKd (SNTG1, Q9NSN8): below the threshold; pKd (SYNJ2BP, P57105): 4.27; pKd (TJP1_2, Q07157): below the threshold; pKd (TJP3_3, O95049): below the threshold |
| NLQEHSTTSV [RSBN1, Q5VWQ0] | below the threshold | 4.13 | 4 | below the threshold | 3.67 | 4 | below the threshold | below the threshold | below the threshold | below the threshold | 3.74 | below the threshold | below the threshold | below the threshold | below the threshold | below the threshold | below the threshold | below the threshold | below the threshold | below the threshold | pKd (RADIL, Q96JH8): below the threshold; pKd (RHPN1, Q8TCX5): 4.04; pKd (SNTG1, Q9NSN8): 3.65; pKd (SYNJ2BP, P57105): 4.42; pKd (TJP1_2, Q07157): below the threshold; pKd (TJP3_3, O95049): below the threshold |
| DHLGGGGESM [TNRC6A, Q8NDV7] | below the threshold | below the threshold | below the threshold | below the threshold | below the threshold | below the threshold | below the threshold | below the threshold | below the threshold | below the threshold | below the threshold | below the threshold | below the threshold | below the threshold | 3.95 | below the threshold | below the threshold | below the threshold | below the threshold | below the threshold | pKd (RADIL, Q96JH8): below the threshold; pKd (RHPN1, Q8TCX5): below the threshold; pKd (SNTG1, Q9NSN8): below the threshold; pKd (SYNJ2BP, P57105): below the threshold; pKd (TJP1_2, Q07157): below the threshold; pKd (TJP3_3, O95049): below the threshold |
| IPGKEFDTPL [PLCB1, Q9NQ66] | below the threshold | below the threshold | 3.61 | below the threshold | below the threshold | below the threshold | below the threshold | below the threshold | below the threshold | below the threshold | below the threshold | below the threshold | below the threshold | below the threshold | below the threshold | below the threshold | below the threshold | 5.12 | below the threshold | 4.3 | pKd (RADIL, Q96JH8): below the threshold; pKd (RHPN1, Q8TCX5): 3.65; pKd (SNTG1, Q9NSN8): below the threshold; pKd (SYNJ2BP, P57105): 4.33; pKd (TJP1_2, Q07157): below the threshold; pKd (TJP3_3, O95049): below the threshold |
